According to patent US20240277805A1:

Molecular target: T1, myostatin (UniProt O14793)
T1 sequence (looked up): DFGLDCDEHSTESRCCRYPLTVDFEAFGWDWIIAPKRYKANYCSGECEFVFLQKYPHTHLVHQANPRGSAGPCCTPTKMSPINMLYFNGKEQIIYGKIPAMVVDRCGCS
Experiment: cell-based or functional assay

Bioassay % relative potency; lot 0010036965, 5° C. upright, 0 months (% relative potency): 100
Bioassay % relative potency; lot 0010036965, 5° C. upright, 0.5 months (% relative potency): 99
Bioassay % relative potency; lot 0010036965, 5° C. upright, 1 month (% relative potency): 100
Bioassay % relative potency; lot 0010036965, 5° C. upright, 3 months (% relative potency): 104
Bioassay % relative potency; lot 0010036965, 5° C. upright, 6 months (% relative potency): 94
Bioassay % relative potency; lot 0010036965, 25° C. upright, 0 months (% relative potency): 100
Bioassay % relative potency; lot 0010036965, 25° C. upright, 0.25 months (% relative potency): 97
Bioassay % relative potency; lot 0010036965, -20° C. upright, 0 months (% relative potency): 100
Bioassay % relative potency; lot 0010036965, -20° C. upright, 1 month (% relative potency): 100
Bioassay % relative potency; lot 0010036965, -20° C. upright, 3 months (% relative potency): 102
Bioassay % relative potency; lot 0010036965, -20° C. upright, 6 months (% relative potency): 95
Bioassay % relative potency; lot 0010036965, -20° C. upright, 9 months (% relative potency): 103
Bioassay % relative potency; lot 0010036965, -20° C. upright, 12 months (% relative potency): 102
Bioassay % relative potency; lot 0010036965, -20° C. upright, 18 months (% relative potency): 102
Bioassay % relative potency; lot 0010036965, -20° C. upright, 24 months (% relative potency): 99
Bioassay % relative potency; lot 0010036965, -20° C. upright, 30 months (% relative potency): 102
Bioassay % relative potency; lot 0010036965, -70° C. upright, 0 months (% relative potency): 100
Bioassay % relative potency; lot 0010036965, -70° C. upright, 12 months (% relative potency): 100
Bioassay % relative potency; lot 0010036965, -70° C. upright, 24 months (% relative potency): 100
Bioassay % relative potency; lot 0010036965, T = 0 of the 5 × freeze/thaw study (% relative potency): 100
Bioassay % relative potency; lot 0010036965, after 5 × F/T (% relative potency): 100
Bioassay % relative potency; lot EG-13-0150, 2-8° C. upright, 0 months (% relative potency): 99
Bioassay % relative potency; lot EG-13-0150, 2-8° C. upright, 1 month (% relative potency): 93.2
Bioassay % relative potency; lot EG-13-0150, 2-8° C. upright, 3 months (% relative potency): 99.7
Bioassay % relative potency; lot EG-13-0150, 2-8° C. upright, 6 months (% relative potency): 114
Bioassay % relative potency; lot EG-13-0150, 2-8° C. upright, 9 months (% relative potency): 103
Bioassay % relative potency; lot EG-13-0150, 2-8° C. upright, 12 months (% relative potency): 106
Bioassay % relative potency; lot EG-13-0150, 25° C. upright, 0 months (% relative potency): 99
Bioassay % relative potency; lot EG-13-0150, 25° C. upright, 1 month (% relative potency): 86.9
Bioassay % relative potency; lot EG-13-0150, -20° C. upright, 0 months (% relative potency): 99
Bioassay % relative potency; lot EG-13-0150, -20° C. upright, 1 month (% relative potency): 93.2
Bioassay % relative potency; lot EG-13-0150, -20° C. upright, 3 months (% relative potency): 94.4
Bioassay % relative potency; lot EG-13-0150, -20° C. upright, 6 months (% relative potency): 110
Bioassay % relative potency; lot EG-13-0150, -20° C. upright, 9 months (% relative potency): 99.3
Bioassay % relative potency; lot EG-13-0150, -20° C. upright, 12 months (% relative potency): 105
Bioassay % relative potency; lot EG-13-0150, T = 0 of the 5 × freeze/thaw study (% relative potency): 99
Bioassay % relative potency; lot EG-13-0150, after 5 × F/T (% relative potency): 96
Bioassay % relative potency; lot FG-13-0230, 2-8° C. upright, 0 months (% relative potency): 99
Bioassay % relative potency; lot FG-13-0230, 2-8° C. upright, 1 month (% relative potency): 116
Bioassay % relative potency; lot FG-13-0230, 2-8° C. upright, 3 months (% relative potency): 108
Bioassay % relative potency; lot FG-13-0230, 2-8° C. upright, 6 months (% relative potency): 93
Bioassay % relative potency; lot FG-13-0230, 2-8° C. upright, 9 months (% relative potency): 116
Bioassay % relative potency; lot FG-13-0230, 2-8° C. upright, 12 months (% relative potency): 121
Bioassay % relative potency; lot FG-13-0230, 25° C. upright, 0 months (% relative potency): 99
Bioassay % relative potency; lot FG-13-0230, 25° C. upright, 1 month (% relative potency): 116
Bioassay % relative potency; lot FG-13-0230, -20° C. upright, 0 months (% relative potency): 99
Bioassay % relative potency; lot FG-13-0230, -20° C. upright, 1 month (% relative potency): 100
Bioassay % relative potency; lot FG-13-0230, -20° C. upright, 3 months (% relative potency): 115
Bioassay % relative potency; lot FG-13-0230, -20° C. upright, 6 months (% relative potency): 96
Bioassay % relative potency; lot FG-13-0230, -20° C. upright, 9 months (% relative potency): 94
Bioassay % relative potency; lot FG-13-0230, -20° C. upright, 12 months (% relative potency): 106
Bioassay % relative potency; lot FG-13-0230, -70° C. upright, 0 months (% relative potency): 99
Bioassay % relative potency; lot FG-13-0230, -70° C. upright, 1 month (% relative potency): 115
Bioassay % relative potency; lot FG-13-0230, -70° C. upright, 3 months (% relative potency): 107
Bioassay % relative potency; lot FG-14-0056, 2-8° C. upright, 0 months (% relative potency): 99
Bioassay % relative potency; lot FG-14-0056, 2-8° C. upright, 1 month (% relative potency): 102
Bioassay % relative potency; lot FG-14-0056, 25° C. upright, 0 months (% relative potency): 99
Bioassay % relative potency; lot FG-14-0056, 25° C. upright, 1 month (% relative potency): 122
Bioassay % relative potency; lot FG-14-0056, -20° C. by the title (condition line prints 2-8° C.), 0 months (% relative potency): 99
Bioassay % relative potency; lot FG-14-0056, -20° C. by the title (condition line prints 2-8° C.), 1 month (% relative potency): 117
Bioassay % relative potency; lot FG-14-0109, 2-8° C. inverted, 0 months (% relative potency): 98
Bioassay % relative potency; lot FG-14-0109, 2-8° C. inverted, 3 months (% relative potency): 96
Bioassay % relative potency; lot FG-14-0109, 2-8° C. inverted, 6 months (% relative potency): 112
Bioassay % relative potency; lot FG-14-0109, 2-8° C. upright, 0 months (% relative potency): 98
Bioassay % relative potency; lot FG-14-0109, 2-8° C. upright, 3 months (% relative potency): 92
Bioassay % relative potency; lot FG-14-0109, 2-8° C. upright, 6 months (% relative potency): 107
Bioassay % relative potency; lot FG-14-0109, 25° C. inverted, 0 months (% relative potency): 98
Bioassay % relative potency; lot FG-14-0109, 25° C. inverted, 3 months (% relative potency): 94
Bioassay % relative potency; lot FG-14-0109, 25° C. inverted, 6 months (% relative potency): 98
Bioassay % relative potency; lot FG-14-0109, 25° C. upright, 0 months (% relative potency): 98
Bioassay % relative potency; lot FG-14-0109, 25° C. upright, 3 months (% relative potency): 91
Bioassay % relative potency; lot FG-14-0109, 25° C. upright, 6 months (% relative potency): 105
Bioassay % relative potency; lot FG-14-0109, -20° C. upright, 0 months (% relative potency): 98
Bioassay % relative potency; lot FG-14-0109, -20° C. upright, 3 months (% relative potency): 96
Bioassay % relative potency; lot FG-14-0109, -20° C. upright, 6 months (% relative potency): 101
Cell Based Bioassay, Relative Potency; DP lot 0010036965, 5° C., 54 months (% relative potency): 87
Cell Based Bioassay, Relative Potency; DP lot 0010036965, -20° C., 54 months (% relative potency): 99
Cell Based Bioassay, Relative Potency; DP lot 0010036965, -70° C., 54 months (% relative potency): 111
Cell Based Bioassay, Relative Potency; DS lot 0010035106, 5° C., 54 months (% relative potency): 101
Cell Based Bioassay, Relative Potency; DS lot 0010035106, -70° C., 54 months (% relative potency): 99
B1: STM 434 (svActRIIB-Fc (E28W, S44T) polypeptide without signal sequence) (Fc fusion)
chain: ETRWCIYYNANWELERTNQTGLERCEGEQDKRLHCYASWRNSSGTIELVKKGCWLDDFNCYDRQECVATEENPQVYFCCCEGNFCNERFTHLPEAGGPEVTYEPPPTAPTGGGGSVECPPCPAPPVAGPSVFLFPPKPKDTLMISRTPEVTCVVVDVSHEDPEVQFNWYVDGVEVHNAKTKPREEQFNSTFRVVSVLTVVHQDWLNGKEYKCKVSNKGLPAPIEKTISKTKGQPREPQVYTLPPSREEMTKNQVSLTCLVKGFYPSDIAVEWESNGQPENNYKTTPPMLDSDGSFFLYSKLTVDKSRWQQGNVFSCSVMHEALHNHYTQKSLSLSPGK
